Results on one molecule are retold here after PMC11975286, “Functional dissection of the conserved C. elegans LEM-3/ANKLE1 nuclease reveals a crucial requirement for the LEM-like and GIY-YIG domains for DNA bridge processing”.

The target of one series is T1, LEM-3(485-704) (Caenorhabditis elegans, UniProt G5EGA3 485-704).
T1 sequence: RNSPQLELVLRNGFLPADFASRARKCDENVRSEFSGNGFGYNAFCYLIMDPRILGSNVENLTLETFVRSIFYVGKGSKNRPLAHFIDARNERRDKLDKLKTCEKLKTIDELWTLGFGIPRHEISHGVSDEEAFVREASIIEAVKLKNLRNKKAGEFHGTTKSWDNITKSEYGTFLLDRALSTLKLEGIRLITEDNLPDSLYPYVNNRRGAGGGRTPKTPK
The series is described as follows: EMSA; no divalent metal, 100 mM Na+; 10 mM Tris-HCl pH 7.5, 100 mM NaCl, 5% glycerol, 5 ng/ul poly(dI-dC), 4 C, 1 h; 8.3 nM HJ-X0-1 (0.13 nM for Kd); 6% native PAGE, 0.5x TBE, 4 C. The following applies: protein: recombinant; tags: His-GST removed by TEV; label: 5'-Cy5 on X0-1; four-way junction of 4 strands, 1 copy each. On the technique in general: A gel shift assay detects complexes by their altered migration in electrophoresis.

A further series deals with T2, LEM-3(241-704) (Caenorhabditis elegans, UniProt G5EGA3 241-704).
T2 sequence: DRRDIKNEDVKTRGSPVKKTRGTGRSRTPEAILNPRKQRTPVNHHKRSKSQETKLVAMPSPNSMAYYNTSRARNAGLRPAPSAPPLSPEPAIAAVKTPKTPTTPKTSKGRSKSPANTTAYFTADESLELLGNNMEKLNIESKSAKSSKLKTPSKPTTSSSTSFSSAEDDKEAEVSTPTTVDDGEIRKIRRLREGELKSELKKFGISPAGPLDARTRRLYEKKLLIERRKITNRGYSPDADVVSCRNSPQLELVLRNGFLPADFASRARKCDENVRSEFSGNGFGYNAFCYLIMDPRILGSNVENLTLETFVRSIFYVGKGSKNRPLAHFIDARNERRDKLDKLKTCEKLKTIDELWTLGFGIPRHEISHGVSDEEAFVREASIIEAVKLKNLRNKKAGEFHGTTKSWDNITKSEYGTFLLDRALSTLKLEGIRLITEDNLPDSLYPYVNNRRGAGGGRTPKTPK
Briefly: EMSA; no divalent metal, 100 mM Na+; 0.13 nM HJ; cooperative (Hill) fit; 10 mM Tris-HCl pH 7.5, 100 mM NaCl, 5% glycerol, 5 ng/ul poly(dI-dC), 4 C, 1 h; 8.3 nM HJ-X0-1 (0.13 nM for Kd); 6% native PAGE, 0.5x TBE, 4 C. Particulars: protein: recombinant; tags: His-GST removed by TEV; label: 5'-Cy5 on X0-1; four-way junction of 4 strands, 1 copy each.

B1: HJ-X0-1 (immobile Holliday junction) (structured_DNA)
DNA 1: ACGCTGCCGAATTCTACCAGTGCCTTGCTAGGACATCTTTGCCCACCTGCAGGTTCACCC
DNA 2: GGGTGAACCTGCAGGTGGGCAAAGATGTCCATCTGTTGTAATCGTCAAGCTTTATGCCGT
DNA 3: ACGGCATAAAGCTTGACGATTACAACAGATCATGGAGCTGTCTAGAGGATCCGACTATCG
DNA 4: CGATAGTCGGATCCTCTAGACAGCTCCATGTAGCAAGGCACTGGTAGAATTCGGCAGCGT
As for B1, the binding result with LEM-3(485-704) is reported as “no binding”. The Kd with LEM-3(241-704) is roughly 40 nM.

Broadly, the Kd is a measure of binding affinity in units of concentration.
